This note sets out measurements from article PMC9540345.

The target of this test is FLAG-HA epitope-tagged H3.1 (UniProt P68431). As to the kind of experiment: proximity ligation.

“DAXX (death domain-associated protein 6) (from UniProt Q9UER7 1-740) (natural protein)” displayed a fold enrichment of PLA foci over empty vector control cells of 1.9 fold.
